The values that follow come from patent US20210253643A1 (UNIVERSITY OF BRITISH COLUMBIA, published 2021).

The target of the assay is T1, FhuA (E. coli, UniProt P06971 34-747).
T1 construct: also called FhuA receptor; FhuA transporter
T1 sequence (looked up): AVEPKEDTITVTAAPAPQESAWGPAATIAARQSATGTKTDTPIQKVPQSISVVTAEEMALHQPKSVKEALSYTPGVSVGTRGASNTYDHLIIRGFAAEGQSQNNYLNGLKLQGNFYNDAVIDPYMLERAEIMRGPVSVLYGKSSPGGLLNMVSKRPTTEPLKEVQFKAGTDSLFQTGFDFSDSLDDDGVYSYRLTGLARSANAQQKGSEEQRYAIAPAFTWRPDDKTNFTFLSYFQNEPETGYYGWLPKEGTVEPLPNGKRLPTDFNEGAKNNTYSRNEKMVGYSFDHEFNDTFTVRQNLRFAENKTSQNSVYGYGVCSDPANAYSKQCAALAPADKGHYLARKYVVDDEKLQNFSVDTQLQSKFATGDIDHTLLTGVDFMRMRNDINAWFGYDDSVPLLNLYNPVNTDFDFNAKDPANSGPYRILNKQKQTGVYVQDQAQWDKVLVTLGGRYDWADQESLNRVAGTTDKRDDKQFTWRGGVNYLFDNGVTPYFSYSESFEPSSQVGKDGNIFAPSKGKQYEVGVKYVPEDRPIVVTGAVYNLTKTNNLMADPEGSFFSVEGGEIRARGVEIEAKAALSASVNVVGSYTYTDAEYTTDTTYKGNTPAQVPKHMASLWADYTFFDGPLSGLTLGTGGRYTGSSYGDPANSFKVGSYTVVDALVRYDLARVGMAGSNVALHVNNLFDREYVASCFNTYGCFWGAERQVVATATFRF
Briefly: CN-PAGE band shift, Coomassie: about 2 µg FhuA in MSPL156 nanodisc with 5 µg colicin M, 5 min at room temperature, without and with ferricrocin.

B1: Colicin M (other)
chain: METLTVHAPSPSTNLPSYGNGAFSLSAPHVPGAGPLLVQVVYSFFQSPNMCLQALTQLEDYIKKHGASNPLTLQIISTNIGYFCNADRNLVLHPGISVYDAYHFAKPAPSQYDYRSMNMKQMSGNVTTPIVALAHYLWGNGAERSVNIANIGLKISPMKINQIKDIIKSGVVGTFPVSTKFTHATGDYNVITGAYLGNITLKTEGTLTISANGSWTYNGVVRSYDDKYDFNASTHRGIIGESLTRLGAMFSGKEYQILLPGEIHIKESGKR
notes: also called ColM; His-tagged Colicin M
For B1, the binding result is “binds”.
